Type: physicochemical
Settings: 0.5 mg/mL protein, 25 mM HEPES pH 7.5, 1 mM TCEP, scan 15 to 65° C. at 60° C./hour

Substance: WT Mpro: wild-type SARS-CoV-2 main protease (nsp5), recombinant from E. coli
- temperature associated with the DSC thermogram peak: 57.2 °C

Reference: patent US20240161865A1, “METHODS AND PROTEINS FOR TARGETING MAIN PROTEASE OF CORONAVIRUS” (priority 2022, published 2024)
